In the supplement of paper PMC10724198:
± gives the standard deviation of the averaged measurements.

System: Saccharomyces cerevisiae
Assay: protein stability index of tFT-peptide fusion (C-terminal peptide) (PSI (0-1 scale)); higher = more stable (slower turnover)
Conditions: genetic background: wild type; temperature: 30 C
Description: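 Multiplexed protein stability (MPS) profiling in S. cerevisiae. Random 12-aa peptides (tFT-X12 library) are fused to the C-terminus of a sfGFP-mCherry tandem fluorescent timer, after mCherry and a GGGS linker. Cells are FACS-sorted into 8 mCherry/sfGFP bins and deep-sequenced. The protein stability index (PSI) is the read-weighted bin average, scaled from 0 (unstable) to 1 (stable). Only peptides with >10 reads are reported; cells were grown at 30 °C in SC-His with glucose.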
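Also: PSI is a weighted mean of sequencing reads over stability bins, variants kept only with over 10 reads, mCherry proximal and sfGFP distal, peptide attached via GGGS linker.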

Sequence | protein stability index
AAAWWGPRNRGL | 0.6749 ± 0.0056
AAGLNSWLRERW | 0.805 ± 0.032
AAIQNRPIQSNP | 0.672 ± 0.027
AALLQAGMPRTR | 0.692 ± 0.013
AAPPHLTSHPPL | 0.811 ± 0.19
AARRVARTTSFC | 0.6728 ± 0.0019
AARSCRCSSLIG | 0.774 ± 0.0035
AAVRCVAEGGAP | 0.637 ± 0.036
ACDVPSERAVSG | 0.628 ± 0.024
ACFFNCFISLPF | 0.584 ± 0.048
ACGDRGGLCSEG | 0.616 ± 0.066
ADCLSCRVLIVM | 0.484 ± 0.075
ADGLSRDKALIV | 0.598 ± 0.0074
ADLAFAGGPYYG | 0.69 ± 0.067
ADMTRSRYMGRS | 0.692 ± 0.033
ADQAPVLTVWLP | 0.669 ± 0.023
AELALGIESYLP | 0.683 ± 0.083
AEMGQDGADAGQ | 0.676 ± 0.01
AEPSERSRNSPP | 0.68 ± 0.019
AEVRRQEGTVGV | 0.707 ± 0.036
AEYSTAYRLGIC | 0.644 ± 0.1
AFCLLSSLASGF | 0.759 ± 0.067
AFHTLSGFRRVP | 0.673 ± 0.019
AFLMPFPSRLCV | 0.5806 ± 0.0052
AFPGCRPFRPLH | 0.709 ± 0.056

Sequence | protein stability index
AFPHDYCRFFLP | 0.612 ± 0.048
AFPHRLTRGYDQ | 0.666 ± 0.038
AFPSISNEVVSV | 0.707 ± 0.017
AFRCGGVPGDFA | 0.664 ± 0.022
AFSASLAGSGRS | 0.736 ± 0.046
AFSGMMSVFREW | 0.695 ± 0.049
AGAFVGAPVGGE | 0.713 ± 0.026
AGALFRLPSVFD | 0.727 ± 0.076
AGASCGGRPDTA | 0.607 ± 0.02
AGCGGIWGLWVL | 0.723 ± 0.05
AGCGGRCEAGDR | 0.67 ± 0.011
AGFGVGALSRSG | 0.673 ± 0.041
AGGAAIVERAMK | 0.6857 ± 0.003
AGGDDGAPGTQS | 0.644 ± 0.015
AGGGPDGFIRPM | 0.701 ± 0.014
AGGKGVGRGWGL | 0.698 ± 0.051
AGGLGSGGSRER | 0.6612 ± 0.0024
AGGSVFSVLVDE | 0.665 ± 0.0081
AGGWLRGWLGVG | 0.673 ± 0.047
AGGWRGAEGCGG | 0.782 ± 0.083
AGQNVWGAGTNE | 0.712 ± 0.0079
AGRGGRAGGGWR | 0.668 ± 0.015
AGRSCGRHEPPK | 0.579 ± 0.098
AGRVCTRGVNEI | 0.786 ± 0.1
AGSAAGGAWSGG | 0.695 ± 0.019

Sequence | protein stability index
AGSLFEVECNGS | 0.746 ± 0.038
AGSSIPLPASRA | 0.705 ± 0.026
AGSVIPCPASRP | 0.695 ± 0.029
AHADISPIHNLH | 0.627 ± 0.0066
AHGASLCVPPSP | 0.512 ± 0.013
AHKSFRMVDGNR | 0.678 ± 0.066
AHLLFGFGAPVS | 0.714 ± 0.15
AHPLSVSSFLSF | 0.671 ± 0.0073
AHPPPPQLPHPH | 0.7241 ± 0.0023
AHWFMPVSCLLV | 0.838 ± 0.2
AIDGVREDTSVE | 0.704 ± 0.18
AIEKKVNQTPFK | 0.659 ± 0.034
AIERCCTSRRRR | 0.701 ± 0.041
AIGSVWACVCCS | 0.504 ± 0.095
AIKTVINYRDMM | 0.608 ± 0.0024
AIRTPPTRTPPA | 0.71 ± 0.049
AISSPVLSYATP | 0.657 ± 0.0035
AKACHGGSTLPG | 0.609 ± 0.045
AKKKKKTKRRKK | 0.692 ± 0.07
AKLQQEIVWALD | 0.779 ± 0.048
AKVKIENKHRRK | 0.716 ± 0.015
AKWAWPAIVGGC | 0.722 ± 0.053
ALASPGLLVFTR | 0.673 ± 0.026
ALCGWYMGLFHL | 0.646 ± 0.0042
ALFEDWRIGVFS | 0.71 ± 0.036

Sequence | protein stability index
ALFPPPSLRPLP | 0.724 ± 0.054
ALFTVGNRPSSL | 0.701 ± 0.021
ALGVHGKFEWIK | 0.668 ± 0.066
ALHPPSPPPPAP | 0.7313 ± 0.0027
ALIGMFATVALI | 0.689 ± 0.099
ALMHVTLAVGLL | 0.579 ± 0.0027
ALPPPPPHPSPS | 0.717 ± 0.019
ALPYPPRFPHCS | 0.645 ± 0.019
ALRCRPVYHIDG | 0.658 ± 0.025
ALRRWWCRGGRI | 0.813 ± 0.024
ALRSGGAARVRL | 0.7776 ± 0.0071
ALSHGPAPRTRS | 0.649 ± 0.048
ALSLPPRLRTFY | 0.663 ± 0.05
ALSRSCPSGAFL | 0.727 ± 0.01
AMLLRCRQGDLI | 0.675 ± 0.032
AMVATAYINPHE | 0.712 ± 0.037
ANELQEIYLGET | 0.6881 ± 0.006
ANGTLSGSPAPS | 0.641 ± 0.021
ANKNDHNNQRQA | 0.789 ± 0.09
ANVRTCCTSVPV | 0.652 ± 0.037
APAPELRRSPTP | 0.707 ± 0.01
APAPPPGVPPSR | 0.702 ± 0.002
APASPSFPLSAP | 0.673 ± 0.025
APCLLNTLRPSP | 0.686 ± 0.033
APEAHYRGCPPH | 0.681 ± 0.018

Sequence | protein stability index
APFPPHPPPPPS | 0.707 ± 0.043
APFSALFPANSV | 0.719 ± 0.15
APGPCSAPSCGA | 0.67 ± 0.013
APGPPPLPHPPT | 0.717 ± 0.022
APILFRICVRRL | 0.541 ± 0.046
APIRPPVPPASP | 0.716 ± 0.035
APLFLPPPSLFF | 0.6934 ± 0.0052
APLLTRRLPTAH | 0.785 ± 0.025
APLTYFKPPTPT | 0.666 ± 0.11
APPLQLSSPPPS | 0.746 ± 0.051
APPPAAPALSPR | 0.718 ± 0.096
APPPAYCPPPPP | 0.713 ± 0.022
APPPPPALPEYQ | 0.685 ± 0.047
APPPPPDHPFPP | 0.691 ± 0.08
APPPPPPPCAPS | 0.657 ± 0.043
APPPPPSPRRPL | 0.708 ± 0.013
APPPPPSRLFPP | 0.672 ± 0.028
APPPPRPLLPSL | 0.723 ± 0.047
APPPRLAPTLSS | 0.775 ± 0.014
APPPSPPPPPFP | 0.67 ± 0.064
APPPVFLPPPPP | 0.778 ± 0.039
APPSPPPPTSHP | 0.777 ± 0.051
APPSPRPSRPSP | 0.64 ± 0.029
APRLFSPPEPPT | 0.702 ± 0.038
APRLIALPPPTA | 0.711 ± 0.11

Sequence | protein stability index
APRPLPPPPSPC | 0.726 ± 0.027
APRTRPSPTLGT | 0.724 ± 0.029
APSCRVPPLPPP | 0.708 ± 0.046
APSELSSRPFLL | 0.707 ± 0.026
APSFSSPPVPLF | 0.698 ± 0.0085
APSRTPRQPPSH | 0.716 ± 0.067
APTPPPRISAWL | 0.687 ± 0.019
APTVPVPPSPDA | 0.705 ± 0.077
APVRSSIALKSD | 0.703 ± 0.035
APVWSINKTRVM | 0.671 ± 0.045
AQSRTCPMPLPA | 0.719 ± 0.025
AQTHGGSSLPRP | 0.688 ± 0.028
ARAAHLASRGLP | 0.689 ± 0.037
ARCLSFPSSSSA | 0.654 ± 0.022
ARESGFGGVLEE | 0.674 ± 0.028
ARFSPTLQLTPT | 0.844 ± 0.13
ARGCRRWRVLRR | 0.77 ± 0.25
ARGGIGTCSWGW | 0.743 ± 0.074
ARGSTGLKLRWG | 0.706 ± 0.0096
ARIALGLSALVL | 0.641 ± 0.05
ARIRDSPVIKTV | 0.672 ± 0.019
ARLAYESSPLPR | 0.7185 ± 0.0056
ARNDAGKRERVT | 0.696 ± 0.016
ARNKKKDLREIK | 0.761 ± 0.054
ARPCPRPHVPST | 0.706 ± 0.043

Sequence | protein stability index
ARPFLWDFCLGR | 0.681 ± 0.028
ARPGAWAPTEVD | 0.737 ± 0.0099
ARPLHSIGPAII | 0.658 ± 0.0089
ARPPTPLRKGAP | 0.673 ± 0.017
ARPSRPPPPSPP | 0.662 ± 0.018
ARPVPRAPSRYA | 0.647 ± 0.047
ARRTEEVVLRSL | 0.693 ± 0.059
ARSERVVPKMQS | 0.732 ± 0.043
ARSGDSGQPPSQ | 0.689 ± 0.05
ARSPSPLPSPPP | 0.702 ± 0.018
ARVPPFPCHPTL | 0.686 ± 0.03
ARVRAREGGDRG | 0.624 ± 0.0076
ASDSNPLDPADD | 0.708 ± 0.011
ASEHRPPRPHER | 0.683 ± 0.071
ASFPPVHPALSP | 0.664 ± 0.035
ASIRLSPSWVQR | 0.652 ± 0.0081
ASLLGLLIHLGR | 0.6951 ± 0.0059
ASNPGPLTPPQP | 0.705 ± 0.0087
ASPCTVAQDPRT | 0.621 ± 0.023
ASPFASCPPSLP | 0.714 ± 0.037
ASPPAYGPPPPP | 0.6806 ± 0.0035
ASPSPLPPLPPP | 0.718 ± 0.1
ASPYTVTPLTNS | 0.693 ± 0.016
ASSLSHLSLPAP | 0.695 ± 0.017
ASSLSPSTFFCL | 0.642 ± 0.015

Sequence | protein stability index
ASSVVGLEERVR | 0.728 ± 0.049
ASTCLKFTPTIF | 0.883 ± 0.1
ASTSPSASSSPP | 0.727 ± 0.024
ASVLGGLFRDRV | 0.773 ± 0.057
ASVSVWLVFSGG | 0.594 ± 0.0075
ASYGHCTTCRRT | 0.717 ± 0.021
ASYGTRHSAPSV | 0.678 ± 0.0076
ASYSFLSFCNRV | 0.631 ± 0.015
ATACSIMISNAV | 0.662 ± 0.029
ATKAKKGTMSHE | 0.652 ± 0.051
ATPPSPLPPSPP | 0.754 ± 0.061
ATQVGGPTHSHP | 0.7016 ± 0.0031
ATRLFSSNLFLR | 0.576 ± 0.051
ATSFSLLPACFS | 0.686 ± 0.0007
ATYNASLERLRP | 0.719 ± 0.2
AVAETCEQAGRG | 0.675 ± 0.066
AVAYMAHLPITR | 0.69 ± 0.019
AVCGSISSWMWF | 0.696 ± 0.0092
AVFSWVTAGQCD | 0.684 ± 0.027
AVGQAGITSLVL | 0.699 ± 0.029
AVLGWAGGGWAG | 0.694 ± 0.11
